Test results published in patent EP1870419A2, “Modulators of beta-amyloid peptide aggregation comprising D-amino acids” (Praecis Pharmaceuticals Incorporated, priority 1999, dated 2000).
One block for each substance: values may come before it.

Target: Aβ1-40 peptide (natural β-amyloid peptide, β-AP1-40)
Experiment: cell-based or functional assay

Chain of Aβ1-40 peptide (natural β-amyloid peptide, β-AP1-40) (peptide, as listed by the source limits assumed, form in doubt): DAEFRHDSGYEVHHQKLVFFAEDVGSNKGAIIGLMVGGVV

Substance: PPI 1007: TFA·N,N-dimethyl-(lvffl)-NH2 (peptide)
Nucleation assay Δlag, 0.3 µM compound (note *) (fold of control lag time): 3
Nucleation assay Δlag, 0.6 µM compound (note #) (fold of control lag time): 1.5
Nucleation assay Δlag, 1 µM compound (note *) (fold of control lag time): 4
Nucleation assay Δlag, 1.25 µM compound (note #) (fold of control lag time): 1.5
Nucleation assay Δlag, 2.5 µM compound (note #) (fold of control lag time): 1.5
Nucleation assay Δlag, 3 µM compound (note *) (fold of control lag time): 4

Substance: PPI 1013: TFA·H-(Glvffl)-NH2 (peptide)
Nucleation assay Δlag, 0.6 µM compound (note #) (fold of control lag time): 2
Nucleation assay Δlag, 1.25 µM compound (note #) (fold of control lag time): > 3
Nucleation assay Δlag, 2.5 µM compound (note #) (fold of control lag time): 2

Substance: PPI 1125: 2 TFA·H-lvf-NH-NH-fvl-H (peptide)
Nucleation assay data (Δlag), 0.6 µM compound (note *) (fold of control lag time): 2
Nucleation assay data (Δlag), 1.25 µM compound (note *) (fold of control lag time): > 2.5
Nucleation assay data (Δlag), 2.5 µM compound (note *) (fold of control lag time): > 2.5

Substance: PPI-1019: TFA•N-methyl-(lvffl)-NH2 (peptide)
Nucleation assay data (Δlag), 0.6 µM compound (note *) (fold of control lag time): 2
Nucleation assay data (Δlag), 1.25 µM compound (note *) (fold of control lag time): > 2.5
Nucleation assay data (Δlag), 2.5 µM compound (note *) (fold of control lag time): > 2.5

Substance: PPI-1318: TFA·H-(lf-D-Cha-vl)-NH2 (peptide)
Nucleation assay data (Δlag), 0.3 µM compound (fold of control lag time): 1
Nucleation assay data (Δlag), 1 µM compound (fold of control lag time): 2
Nucleation assay data (Δlag), 3 µM compound (fold of control lag time): > 5

The remaining lines, values ahead:

Nucleation assay Δlag, 1.25 µM compound (fold of control lag time): 3
Nucleation assay Δlag, 2.5 µM compound (fold of control lag time): > 5
Nucleation assay Δlag, 5 µM compound (fold of control lag time): > 5
Substance: PPI 969: TFA·N-ethyl-(Gaffvl)-NH2 (peptide)

Nucleation assay Δlag, 1.25 µM compound (fold of control lag time): 1
Nucleation assay Δlag, 2.5 µM compound (fold of control lag time): 1
Nucleation assay Δlag, 5 µM compound (fold of control lag time): 3
Substance: PPI 992: TFA·H-(lvffa)-isopropylamide (peptide)

Nucleation assay data (Δlag), 0.3 µM compound (fold of control lag time): 1
Nucleation assay data (Δlag), 1 µM compound (fold of control lag time): 3
Nucleation assay data (Δlag), 3 µM compound (fold of control lag time): > 5
Substance: PPI 1320: TFA·H-(lf-[F5]f-vl)-NH2 (peptide)
